Molecular target: Siglec-10Fc (human) (UniProt Q96LC7)
Assay: Biacore (SPR): control Fc compared with CD24Fc for binding of Siglec-10Fc; only the fitted value is printed under the KD line, no curve is drawn for the control

Sequence of UniProt Q96LC7 (Q96LC7 17-546): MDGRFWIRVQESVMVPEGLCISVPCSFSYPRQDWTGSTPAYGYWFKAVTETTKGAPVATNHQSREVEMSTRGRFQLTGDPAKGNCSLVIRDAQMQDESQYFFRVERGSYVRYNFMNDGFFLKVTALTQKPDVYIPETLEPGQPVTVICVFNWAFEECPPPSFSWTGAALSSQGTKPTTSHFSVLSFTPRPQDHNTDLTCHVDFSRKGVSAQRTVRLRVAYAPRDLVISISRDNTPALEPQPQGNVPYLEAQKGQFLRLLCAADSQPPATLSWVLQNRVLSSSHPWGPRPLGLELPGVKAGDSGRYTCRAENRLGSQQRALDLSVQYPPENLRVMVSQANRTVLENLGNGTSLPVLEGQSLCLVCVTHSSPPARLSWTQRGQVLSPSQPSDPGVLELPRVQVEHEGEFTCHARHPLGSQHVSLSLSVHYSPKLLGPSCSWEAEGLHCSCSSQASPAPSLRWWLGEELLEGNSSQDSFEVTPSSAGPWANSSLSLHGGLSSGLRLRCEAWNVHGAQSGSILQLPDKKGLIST

Kd: 16.2 µM
Substance: control Fc

Reference: patent US20210046154A1
